Positions count from the first letter of the chain named.
T1: HCT116-huCEACAM5 (Homo sapiens, UniProt P06731, T210S)
T1 construct: expressed in transfected cells; host or cells: HCT-116
T1 sequence (P06731 35-676 T210S): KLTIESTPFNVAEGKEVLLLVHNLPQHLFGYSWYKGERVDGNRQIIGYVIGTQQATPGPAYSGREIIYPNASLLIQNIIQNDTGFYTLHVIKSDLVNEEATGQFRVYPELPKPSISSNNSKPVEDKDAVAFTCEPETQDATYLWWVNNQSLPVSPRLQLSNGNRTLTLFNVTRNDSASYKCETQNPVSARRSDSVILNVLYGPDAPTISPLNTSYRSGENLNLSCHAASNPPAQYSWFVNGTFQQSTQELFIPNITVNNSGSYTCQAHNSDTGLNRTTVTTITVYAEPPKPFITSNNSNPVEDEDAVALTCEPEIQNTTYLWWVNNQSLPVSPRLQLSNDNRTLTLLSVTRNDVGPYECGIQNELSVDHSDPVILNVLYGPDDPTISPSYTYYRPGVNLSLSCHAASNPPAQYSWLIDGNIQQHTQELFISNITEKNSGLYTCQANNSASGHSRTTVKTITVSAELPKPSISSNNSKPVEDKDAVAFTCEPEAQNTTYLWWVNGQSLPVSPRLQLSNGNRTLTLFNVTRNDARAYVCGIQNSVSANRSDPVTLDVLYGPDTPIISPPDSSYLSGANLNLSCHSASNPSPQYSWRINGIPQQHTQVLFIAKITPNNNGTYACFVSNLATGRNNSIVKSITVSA

T2: full-length human CEACAM5 (Homo sapiens, UniProt P06731, T210S)
T2 construct: The SPR kinetics against full-length human and cyno CEACAM5 were set up as follows
T2 sequence (P06731 35-702 T210S): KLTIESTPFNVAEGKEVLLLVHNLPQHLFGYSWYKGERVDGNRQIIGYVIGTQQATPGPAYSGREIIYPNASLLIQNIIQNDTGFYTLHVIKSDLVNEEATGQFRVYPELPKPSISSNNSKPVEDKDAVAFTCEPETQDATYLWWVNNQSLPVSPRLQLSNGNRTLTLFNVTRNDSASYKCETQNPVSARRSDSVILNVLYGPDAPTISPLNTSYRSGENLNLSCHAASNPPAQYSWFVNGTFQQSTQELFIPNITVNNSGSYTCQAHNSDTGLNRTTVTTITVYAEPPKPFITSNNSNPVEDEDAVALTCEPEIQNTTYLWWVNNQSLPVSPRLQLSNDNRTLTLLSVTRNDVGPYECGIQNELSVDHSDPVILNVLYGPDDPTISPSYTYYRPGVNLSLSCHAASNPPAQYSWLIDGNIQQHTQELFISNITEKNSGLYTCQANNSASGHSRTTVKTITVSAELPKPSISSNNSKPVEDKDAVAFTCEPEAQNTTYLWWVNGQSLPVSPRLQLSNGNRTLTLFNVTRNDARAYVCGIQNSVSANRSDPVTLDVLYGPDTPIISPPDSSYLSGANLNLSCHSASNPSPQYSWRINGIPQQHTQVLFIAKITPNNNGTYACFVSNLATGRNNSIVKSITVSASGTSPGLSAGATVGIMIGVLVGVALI

B1: MBP007: hIgG1.3f progeny of MBN001; VH SEQ ID NO: 73, VL SEQ ID NO: 74 (antibody, V domains shown)
VH: QVQLVESGGGVVQPGRSLRLSCAASGIYFSSHGMHWVRQAPGKGLEWVTFISYDGSYKSYVDSVKGRFTISRDNSKNTLYLQMNSLRAEDTAVYYCATGLTGTGANDIWGQGTMVTVSS
VL: EIVLTQSPGTLSLSPGERATLSCRASQSVSSSYLAWYQQKPGQAPRLLIYGASSRATGIPDRFSGSGSGTDFTLTISRLEPEDFAVYYCQQNKPSPYTFGQGTKLEIK
B2: MBP010: hIgG1.3f progeny of MBN001; VH SEQ ID NO: 79, VL SEQ ID NO: 80 (antibody, V domains shown)
VH: B1 VH with Y28T, G55S, N106F
VL: B1 VL with P94R

Assays:
HCT116-huCEACAM5 = biological target: T1, HCT116-huCEACAM5; test: Internalization of progeny antibodies (Incucyte, pHrodo red), Example 9; type: cell-based; settings: hIgG1.3 progeny, 25 nM mAb, Table 13A
Description: (§1) Antibodies were evaluated for internalization using HCT-116-huCEACAM5, HCT-116-cyCEACAM5, and MKN45 cell lines.
(§2) Cell lines were first analyzed for cell density and viability using a Vi-cell viability machine. The cell lines were diluted to 0.2E6 vc/mL in growth media, and a volume (50 uL) of each was dispensed to a flat-bottom 96-well plate to achieve cell counts of 10K cells/well. Ls174T media included MEM with 10% HI-FBS and 1% pen/strep. MKN45 media included RPMI (ATCC modification) with 10% HI-FBS and 1% pen/strep. HCT-116 media included McCoy's 5a with 10% HI-FBS, 1% pen/strep, and 6 μg/mL Blasticidin. Cells were allowed to adhere to wells of the 96-well plate (Corning Cat. No. 3595) at 37° C./5% CO2 for approximately 4 hours.
(§3) Each test mAb and control mAb was labeled by first pre-mixing the respective antibody with a pHrodo red (Fab conjugated to pH-sensitive; Thermo cat #Z25612) secondary reagent at a 3:1 dye:mAb molar ratio. A series of dilutions were prepared at 2× target concentration in growth media. The final mAb target concentration was 25 nM. […]
(§4) Coated plates contacted with the labeled mAbs were incubated at 37° C. for 30 minutes. Each plate was then read using an Incucyte apparatus, which collected images from the red and phase channels [10× objective; 3 images/well] for a 24-hour duration, with reads of plates every 30 minutes.

full-length cyno CEACAM5 = test: SPR kinetics of progeny antibodies (BIACORE), Example 8; type: binding, cynomolgus; settings: hIgG1.3f progeny antibodies, Table 12A; for Kd: read-out: cyCEACAM5 KD
Chain of full-length cyno CEACAM5 (as listed by the source): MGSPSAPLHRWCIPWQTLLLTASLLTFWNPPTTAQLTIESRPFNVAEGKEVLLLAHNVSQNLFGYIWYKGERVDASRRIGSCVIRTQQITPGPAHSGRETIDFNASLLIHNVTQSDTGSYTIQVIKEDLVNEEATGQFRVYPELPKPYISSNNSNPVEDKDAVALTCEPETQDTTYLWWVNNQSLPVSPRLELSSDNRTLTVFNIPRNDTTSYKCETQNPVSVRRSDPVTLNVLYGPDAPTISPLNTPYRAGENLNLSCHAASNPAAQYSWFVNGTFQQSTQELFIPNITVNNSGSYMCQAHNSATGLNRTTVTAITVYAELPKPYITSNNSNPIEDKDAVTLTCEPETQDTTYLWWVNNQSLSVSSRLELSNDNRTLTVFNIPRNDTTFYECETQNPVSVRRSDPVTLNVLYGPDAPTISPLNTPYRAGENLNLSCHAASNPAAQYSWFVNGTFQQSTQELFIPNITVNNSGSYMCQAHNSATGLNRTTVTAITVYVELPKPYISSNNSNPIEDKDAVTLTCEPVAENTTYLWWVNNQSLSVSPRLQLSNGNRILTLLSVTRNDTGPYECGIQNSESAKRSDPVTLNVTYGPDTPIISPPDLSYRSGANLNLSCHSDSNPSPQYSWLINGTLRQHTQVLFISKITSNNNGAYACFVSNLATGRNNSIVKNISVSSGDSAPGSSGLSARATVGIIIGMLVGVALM
From the text: (§5) Antibody genes with single amino acid substitutions and combinations of substitutions were synthesized in IgG expression vectors, transiently transfected into HEK cells, and purified via Protein A. In addition, the framework germline reversions described above were also incorporated into the sequences of the progeny. Purified IgG1.3 CEACAM5 mAb clones were characterized using the BIACORE® for high-throughput SPR-based monoclonal characterization.
(§6) The BIACORE® instrument was primed with 1×HBSP+ running buffer (Cytiva catalog no.BR100671). The CM5 chip (Cytiva catalog no. 29149604) was equilibrated to room temperature, and the BIACORE® instrument was re-primed. A human antibody Fc capture kit (Cytiva catalog no. 29234600) was utilized for this analysis. The human antibody Fc capture reagent was immobilized to both flow cells in all 8 flow channels of the CM5 chip via amine-coupling using the following conditions. Immobilization was performed at a temperature of 25° C. The anti-human Fc capture reagent was diluted to a concentration of 25 μg/mL in acetate pH5 buffer. The chip surface was activated by injecting a mixture of 1-ethyl-3-(-3-dimethylaminopropyl) carbodiimide hydrochloride (EDC) and N-hydroxy succinimide (NHS) for 420 seconds at a rate of 10 microliters per minute (uL/min). A concentration (25 ug/mL) of anti-human Fc capture reagent was then injected on the surface for 420 seconds at a rate of 10 uL/min. The remaining chip surface was blocked by injecting ethanolamine for 420 seconds at a rate of 10 uL/min.
(§7) The SPR kinetics against full-length human and cyno CEACAM5 were set up as follows. The antibody capture was performed by diluting the antibodies to a concentration of 10 nM in HBSP+ buffer. The 10 nM mAbs were captured for 20 seconds at 5 uL/min to achieve capture levels of approximately 100RU. Analyte binding was performed by first making a titration series of full-length human and cyno CEACAM5 that were prepared (from 500 nM-0.23 nM) with three-fold dilutions in HBSP+ buffer. The association rate was 180 seconds at 30 uL/min. The dissociation rate was 600 seconds at 30 uL/min. Regeneration was performed using two injections of 3M magnesium chloride MgCl2 for 30 seconds at 30 uL/min. A data fit was performed using a 1:1 binding model with global Rmax. Rmax reflects the maximal response when all ligand is occupied.

HCT116-cyCEACAM5 = test: Internalization of progeny antibodies (Incucyte, pHrodo red), Example 9; type: cell-based, cynomolgus; settings: hIgG1.3 progeny, 25 nM mAb, Table 13A
Chain of HCT116-cyCEACAM5 (as listed by the source): as above
Description: as §1, §2, §3
Coated plates contacted with the labeled mAbs were incubated at 37° C. for 30 minutes. Each plate was then read using an Incucyte apparatus, which collected images from the red and phase channels [10× objective; 3 images/well] for a 24-hour duration, with reads of plates every 30 minutes. […]

MKN45 = test: as above; type: cell-based; settings: hIgG1.3 progeny, 25 nM mAb, Table 13A
Description: as §1
The MKN45 or Ls174T cells were seeded at 10K cells/well (50 uL).
as §2
Each test mAb and control mAb was labeled by first pre-mixing the respective antibody with a pHrodo red (Fab conjugated to pH-sensitive; Thermo cat #Z25612) secondary reagent at a 3:1 dye:mAb molar ratio. A series of dilutions were prepared at 2× target concentration in growth media. […]
as §4

[1] = biological target: T2, full-length human CEACAM5; test: SPR kinetics of progeny antibodies (BIACORE), Example 8; type: binding; settings: hIgG1.3f progeny antibodies, Table 12A
From the text: as §5, §6, §7

Molecule	HCT116-huCEACAM5 red/phase AUC (internalization) (HCT116-huCEACAM5)	cyCEACAM5 ka (full-length cyno CEACAM5)	cyCEACAM5 kd (full-length cyno CEACAM5)	Kd (full-length cyno CEACAM5)	HCT116-cyCEACAM5 red/phase AUC (internalization) (HCT116-cyCEACAM5)	MKN45 24 hr red/phase AUC (internalization) (MKN45)	huCEACAM5 ka [1]	huCEACAM5 kd [1]
B1	1.05	42700 M⁻¹ s⁻¹	0.000924 s⁻¹	21.7 nM	1.80	3.28	79600 M⁻¹ s⁻¹	0.00171 s⁻¹
B2	1.00	34000 M⁻¹ s⁻¹	0.000706 s⁻¹	20.8 nM	2.55	3.11	50000 M⁻¹ s⁻¹	0.00102 s⁻¹
